In the experiment the target is SARS-CoV-2 Spike RBD, B.1.1.529/Omicron (SARS-CoV-2 Omicron B.1.1.529) (UniProt P0DTC2).

“Ribosomally constructed Wuhan-NS (VHH72 V104UAG construct translated with NBDxK-tRNACUA)” yielded a normalized tube fluorescence of 0.09.

For the origin of these results see patent publication US20260139001A1.
